Laboratory results: US9206411B2, “Staphylococcal Phage2638A endolysin amidase domain is lytic for Staphylococcus aureus” (priority 2012, dated 2015)

Key:
Assay in all cases: Plate lysis, susceptibility of strains to 2638A (Table 1)
Format in all cases: cell-based
S. simulans = tested on: S. simulans; set-up: key to Susceptibility to lysis by 2638A, day 3+: − = >100 pmol; (+) = very faint lysis zone; + = 100 pmol; ++ = 10 pmol; +++ = 1 pmol
Experimental: (§1) Purified proteins for each construct were diluted in sterile nickel column elution buffer, and 6 μL of lysostaphin (11 μg) or the constructs (0.2 nmoles or ˜11 μg for the repaired construct 2638A 1-180Mut-486) was spotted onto a freshly spread lawn of S. aureus strain NRS119 (SA LinR #12; linezolid resistant) growing cells that had air dried for 30 min on tryptic soy agar (TSA) plates. L=[…] Lysostaphin (Sigma); Spot 1=11 μg; all other constructs are 0.2 nmoles (˜11 μg for the repaired construct 2638A 1-180Mut-486) […]. The spotted plates were air dried for 10 min in a laminar flow hood and incubated overnight in a 37° C. environment. Scoring of the cleared spots occurred within 20 h of plating the cells.
(§2) The Plate Lysis assay results (FIG. 3) agree with the turbidity reduction assay. Each of the M23 peptidase dependent or SH3b-truncating constructs showing weak activity on S. aureus strain Newman strain. In addition to the Plate Lysis results in FIG. 3, we have also examined numerous strains with reduced but real lytic activity (Table 1). However, the plate lysis results with the 2638A endolysin constructs are extremely novel in appearance. Plate lysis results are routinely visualized as a discrete cleared spot on a lawn of bacteria after a single overnight of culture. […] In contrast, the 2638A endolysin is unique in that sometimes this cleared zone requires multiple days to appear. […] Thus, there is also a likelihood that the enzyme might work preferentially on late log or stationary phase cells in the plate lysis assay, as the 3 day old culture is likely not growing as quickly as the freshly-plated overnight culture.

S. aureus Tanji 47 = tested on: S. aureus Tanji 47; set-up: key to Susceptibility to lysis by 2638A, day 3+: − = >100 pmol; (+) = very faint lysis zone; + = 100 pmol; ++ = 10 pmol; +++ = 1 pmol
Experimental: as §1, §2

S. aureus NRS 384 (MRSA) = tested on: S. aureus NRS 384 (MRSA); set-up: key to Susceptibility to lysis by 2638A, day 3+: − = >100 pmol; (+) = very faint lysis zone; + = 100 pmol; ++ = 10 pmol; +++ = 1 pmol
Experimental: as §1, §2

S. aureus Tanji 21 = tested on: S. aureus Tanji 21; set-up: key to Susceptibility to lysis by 2638A, day 3+: − = >100 pmol; (+) = very faint lysis zone; + = 100 pmol; ++ = 10 pmol; +++ = 1 pmol
Experimental: as §1, §2

S. aureus SA113 ΔtagO = tested on: S. aureus SA113 ΔtagO
Experimental: as §1, §2

S. aureus Newman Δica = tested on: S. aureus Newman Δica
Experimental: as §1, §2

S. epidermidis = tested on: S. epidermidis
Experimental: as §1, §2

S. aureus Tanji 33 = tested on: S. aureus Tanji 33
Experimental: as §1, §2

S. aureus Tanji 19 = tested on: S. aureus Tanji 19
Experimental: as §1, §2

S. aureus ALC 1342 = tested on: S. aureus ALC 1342
Experimental: as §1, §2

S. aureus Newman sm^r = tested on: S. aureus Newman sm^r
Experimental: as §1, §2

S. aureus Tanji 2 = tested on: S. aureus Tanji 2
Experimental: as §1, §2

S. hyicus = tested on: S. hyicus
Experimental: as §1, §2

S. aureus Tanji 20 = tested on: S. aureus Tanji 20
Experimental: as §1, §2

S. aureus Tanji 3 = tested on: S. aureus Tanji 3
Experimental: as §1, §2

S. aureus Reynolds (CP5) = tested on: S. aureus Reynolds (CP5)
Experimental: as §1, §2

S. xylosus = tested on: S. xylosus
Experimental: as §1, §2

B1: 2638A Endolysin: 486 amino acid staphylococcal phage 2638A endolysin (SEQ ID NO:4), C-terminally 6×His-tagged; M23 peptidase, amidase, SH3b domains (protein)
chain: MLTAIDYLTKKGWKISSDPRTYDGYPKNYGYRNYHENGINYDEFCGGYHRAFDVYSNETNDVPAVTSGTVIEANDYGNFGGTFVIRDANDNDWIYGHLQRGSMRFVVGDKVNQGDIIGLQGNSNYYDNPMSVHLHLQLRPKDAKKDEKSQVCSGLAMEKYDITNLNAKQDKSKNGSVKELKHIYSNHIKGNKITAPKPSIQGVVIHNDYGSMTPSQYLPWLYARENNGTHVNGWASVYANRNEVLWYHPTDYVEWHCGNQWANANLIGFEVCESYPGRISDKLFLENEEATLKVAADVMKSYGLPVNRNTVRLHNEFFGTSCPHRSWDLHVGKGEPYTTTNINKMKDYFIKRIKHYYDGGKLEVSKAATIKQSDVKQEVKKQEAKQIVKATDWKQNKDGIWYKAEHASFTVTAPEGIITRYKGPWTGHPQAGVLQKGQTIKYDEVQKFDGHVWVSWETFEGETVYMPVRTWDAKTGKVGKLWGEIKLEHHHHHH
modifications: C-terminal His6 tag; Mutated Phage 2638a
notes: M23 peptidase, amidase, SH3b domains
**Q.** For B1, which “Susceptibility to lysis by 2638A, day 1” value (S. simulans; day 1) is on record?
**A.** − (− = >100 pmol)

**Q.** And the “Susceptibility to lysis by 2638A, day 3+” value (S. simulans; day 3+)?
**A.** (+)

**Q.** And the “Susceptibility to lysis by 2638A, day 1” value (S. aureus Tanji 47; day 1)?
**A.** − (− = >100 pmol)

**Q.** And the “Susceptibility to lysis by 2638A, day 3+” value (S. aureus Tanji 47; day 3+)?
**A.** (+)

**Q.** And the “Susceptibility to lysis by 2638A, day 1” value (S. aureus NRS 384 (MRSA); day 1)?
**A.** − (− = >100 pmol)

**Q.** And the “Susceptibility to lysis by 2638A, day 3+” value (S. aureus NRS 384 (MRSA); day 3+)?
**A.** (+)

**Q.** What about the “Susceptibility to lysis by 2638A, day 1” value (S. aureus Tanji 21; day 1) of the same molecule?
**A.** − (− = >100 pmol)

**Q.** What about the “Susceptibility to lysis by 2638A, day 3+” value (S. aureus Tanji 21; day 3+) of the same molecule?
**A.** (+)

**Q.** And the “Susceptibility to lysis by 2638A, day 1” value (S. aureus SA113 ΔtagO; day 1)?
**A.** +++ (+++ = 1 pmol)

**Q.** What about the “Susceptibility to lysis by 2638A, day 3+” value (S. aureus SA113 ΔtagO; day 3+) of the same molecule?
**A.** +++ (+++ = 1 pmol)

**Q.** And the “Susceptibility to lysis by 2638A, day 1” value (S. aureus Newman Δica; day 1)?
**A.** − (− = >100 pmol)

**Q.** What about the “Susceptibility to lysis by 2638A, day 3+” value (S. aureus Newman Δica; day 3+) of the same molecule?
**A.** − (− = >100 pmol)

**Q.** And the “Susceptibility to lysis by 2638A, day 1” value (S. epidermidis; day 1)?
**A.** − (− = >100 pmol)

**Q.** What about the “Susceptibility to lysis by 2638A, day 3+” value (S. epidermidis; day 3+) of the same molecule?
**A.** + (+ = 100 pmol)

**Q.** What about the “Susceptibility to lysis by 2638A, day 1” value (S. aureus Tanji 33; day 1) of the same molecule?
**A.** − (− = >100 pmol)

**Q.** What about the “Susceptibility to lysis by 2638A, day 3+” value (S. aureus Tanji 33; day 3+) of the same molecule?
**A.** + (+ = 100 pmol)

**Q.** What about the “Susceptibility to lysis by 2638A, day 1” value (S. aureus Tanji 19; day 1) of the same molecule?
**A.** − (− = >100 pmol)

**Q.** And the “Susceptibility to lysis by 2638A, day 3+” value (S. aureus Tanji 19; day 3+)?
**A.** + (+ = 100 pmol)

**Q.** What about the “Susceptibility to lysis by 2638A, day 1” value (S. aureus ALC 1342; day 1) of the same molecule?
**A.** − (− = >100 pmol)

**Q.** And the “Susceptibility to lysis by 2638A, day 3+” value (S. aureus ALC 1342; day 3+)?
**A.** − (− = >100 pmol)

**Q.** And the “Susceptibility to lysis by 2638A, day 1” value (S. aureus Newman sm^r; day 1)?
**A.** − (− = >100 pmol)

**Q.** What about the “Susceptibility to lysis by 2638A, day 3+” value (S. aureus Newman sm^r; day 3+) of the same molecule?
**A.** − (− = >100 pmol)

**Q.** And the “Susceptibility to lysis by 2638A, day 1” value (S. aureus Tanji 2; day 1)?
**A.** − (− = >100 pmol)

**Q.** And the “Susceptibility to lysis by 2638A, day 3+” value (S. aureus Tanji 2; day 3+)?
**A.** + (+ = 100 pmol)

**Q.** What about the “Susceptibility to lysis by 2638A, day 1” value (S. hyicus; day 1) of the same molecule?
**A.** − (− = >100 pmol)

**Q.** And the “Susceptibility to lysis by 2638A, day 3+” value (S. hyicus; day 3+)?
**A.** − (− = >100 pmol)

**Q.** What about the “Susceptibility to lysis by 2638A, day 1” value (S. aureus Tanji 20; day 1) of the same molecule?
**A.** − (− = >100 pmol)

**Q.** And the “Susceptibility to lysis by 2638A, day 3+” value (S. aureus Tanji 20; day 3+)?
**A.** + (+ = 100 pmol)

**Q.** And the “Susceptibility to lysis by 2638A, day 1” value (S. aureus Tanji 3; day 1)?
**A.** − (− = >100 pmol)

**Q.** What about the “Susceptibility to lysis by 2638A, day 3+” value (S. aureus Tanji 3; day 3+) of the same molecule?
**A.** − (− = >100 pmol)

**Q.** What about the “Susceptibility to lysis by 2638A, day 1” value (S. aureus Reynolds (CP5); day 1) of the same molecule?
**A.** − (− = >100 pmol)

**Q.** What about the “Susceptibility to lysis by 2638A, day 3+” value (S. aureus Reynolds (CP5); day 3+) of the same molecule?
**A.** − (− = >100 pmol)

**Q.** What about the “Susceptibility to lysis by 2638A, day 1” value (S. xylosus; day 1) of the same molecule?
**A.** − (− = >100 pmol)

**Q.** And the “Susceptibility to lysis by 2638A, day 3+” value (S. xylosus; day 3+)?
**A.** − (− = >100 pmol)
